Experimental data published in US6677440.

Legend:
prourokinase = prourokinase (UniProt P00749)
[1] = biological target: blood clotting factor VII (UniProt P08709)
Chain of blood clotting factor VII (P08709 61-466): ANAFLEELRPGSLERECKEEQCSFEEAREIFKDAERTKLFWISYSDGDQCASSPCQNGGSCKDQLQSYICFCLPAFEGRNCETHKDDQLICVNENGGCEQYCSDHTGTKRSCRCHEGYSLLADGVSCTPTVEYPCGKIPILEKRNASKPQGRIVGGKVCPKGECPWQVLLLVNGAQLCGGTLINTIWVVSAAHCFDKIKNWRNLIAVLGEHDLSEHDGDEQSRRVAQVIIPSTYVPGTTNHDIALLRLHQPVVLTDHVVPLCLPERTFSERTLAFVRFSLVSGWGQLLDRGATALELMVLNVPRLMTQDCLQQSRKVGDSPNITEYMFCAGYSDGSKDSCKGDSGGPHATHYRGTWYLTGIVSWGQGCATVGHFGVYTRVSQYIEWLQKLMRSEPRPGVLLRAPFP

Chain of proenzyme form of the factor VII-activating protease (chain, as listed by the source): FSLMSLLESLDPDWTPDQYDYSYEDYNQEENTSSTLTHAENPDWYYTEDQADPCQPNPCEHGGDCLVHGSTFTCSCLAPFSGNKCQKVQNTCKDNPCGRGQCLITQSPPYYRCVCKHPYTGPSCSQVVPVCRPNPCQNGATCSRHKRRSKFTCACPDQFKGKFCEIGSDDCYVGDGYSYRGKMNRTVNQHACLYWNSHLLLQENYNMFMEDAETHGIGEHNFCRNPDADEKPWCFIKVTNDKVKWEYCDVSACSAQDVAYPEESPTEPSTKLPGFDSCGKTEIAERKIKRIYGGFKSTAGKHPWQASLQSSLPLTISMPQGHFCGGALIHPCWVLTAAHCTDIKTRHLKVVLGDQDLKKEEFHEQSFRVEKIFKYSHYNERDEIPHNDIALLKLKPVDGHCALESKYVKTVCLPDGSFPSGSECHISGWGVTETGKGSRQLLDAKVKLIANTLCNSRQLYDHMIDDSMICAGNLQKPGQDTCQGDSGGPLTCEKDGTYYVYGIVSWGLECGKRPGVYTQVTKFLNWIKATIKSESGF

proenzyme form of the factor VII-activating protease
activation of prourokinase, with subsequent detection of urokinase (activity tests of Example 1) (prourokinase): The activity tests (see Example 1) confirmed the nativity of the protein in the sense of the retainment of the biological activities
activation of factor VII, with subsequent detection of activated factor VII (activity tests of Example 1) [1]: The activity tests (see Example 1) confirmed the nativity of the protein in the sense of the retainment of the biological activities
